Substitutions are numbered along the chain they refer to.

The target in test [1] is T1, 4Ig-B7H3 fused to mouse Fc (B7H3-mFc) (human, UniProt Q5ZPR3 29-466, limits assumed, biotinylated on primary amines (NHS-biotin) in the experiment of paragraph 316).
T1 construct: Expressed in DG44 CHO cells; also called 4Ig-B7H3-Fc; 4Ig-B7H3-mFc; not shown: mouse Fc
T1 sequence (looked up): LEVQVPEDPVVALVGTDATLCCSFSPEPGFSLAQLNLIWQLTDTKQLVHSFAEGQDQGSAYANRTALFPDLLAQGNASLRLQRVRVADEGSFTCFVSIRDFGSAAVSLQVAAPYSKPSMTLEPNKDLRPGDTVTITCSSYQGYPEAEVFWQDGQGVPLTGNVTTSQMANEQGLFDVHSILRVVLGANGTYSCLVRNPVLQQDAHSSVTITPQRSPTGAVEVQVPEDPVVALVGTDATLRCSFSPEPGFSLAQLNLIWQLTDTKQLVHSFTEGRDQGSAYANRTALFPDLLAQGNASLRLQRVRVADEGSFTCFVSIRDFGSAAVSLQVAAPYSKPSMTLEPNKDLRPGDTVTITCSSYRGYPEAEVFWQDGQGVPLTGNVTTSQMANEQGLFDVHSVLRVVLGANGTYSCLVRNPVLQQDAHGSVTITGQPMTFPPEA
The experiment in a line: SPR, IgG on 4Ig-B7H3-Fc. As for the experimental part: (§1) In brief, B7H3 antigen (either 2Ig-B7H3, 4Ig-B7H3, 2Ig-B7H3-mFc, 4Ig-B7H3-mFc), was directly immobilized onto the CM5 sensor chip via […]. Reference surface was set up for nonspecific binding and refractive index changes. […] The association and dissociation phase data were fitted simultaneously to a 1:1 model by using BIAevaluation 3.2. All the experiments were done at 25° C.

The target in a further test is T2, wild type 2Ig-B7H3-mFc (human, UniProt Q5ZPR3-2 29-248, limits assumed).
T2 construct: Q5ZPR3 canonical entry is the 4Ig isoform; the 2Ig form is its shorter isoform; also called 2Ig-B7H3-Fc; WT 2Ig-B7H3-Fc; not shown: mouse Fc
T2 sequence (looked up): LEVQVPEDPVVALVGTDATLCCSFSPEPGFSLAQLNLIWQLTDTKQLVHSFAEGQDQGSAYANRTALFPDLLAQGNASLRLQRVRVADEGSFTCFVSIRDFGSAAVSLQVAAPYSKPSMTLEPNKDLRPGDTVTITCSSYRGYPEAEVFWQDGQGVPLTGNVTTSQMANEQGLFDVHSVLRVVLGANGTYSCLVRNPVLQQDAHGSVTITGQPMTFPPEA
The experiment in a line: SPR, IgG on 2Ig-B7H3-mFc. As for the experimental part:
as §1

For test [2], the target named is T3, 4Ig-B7H3 (human, UniProt Q5ZPR3 27-461, limits assumed).
T3 construct: also called 4Ig-B73H3
T3 sequence (looked up): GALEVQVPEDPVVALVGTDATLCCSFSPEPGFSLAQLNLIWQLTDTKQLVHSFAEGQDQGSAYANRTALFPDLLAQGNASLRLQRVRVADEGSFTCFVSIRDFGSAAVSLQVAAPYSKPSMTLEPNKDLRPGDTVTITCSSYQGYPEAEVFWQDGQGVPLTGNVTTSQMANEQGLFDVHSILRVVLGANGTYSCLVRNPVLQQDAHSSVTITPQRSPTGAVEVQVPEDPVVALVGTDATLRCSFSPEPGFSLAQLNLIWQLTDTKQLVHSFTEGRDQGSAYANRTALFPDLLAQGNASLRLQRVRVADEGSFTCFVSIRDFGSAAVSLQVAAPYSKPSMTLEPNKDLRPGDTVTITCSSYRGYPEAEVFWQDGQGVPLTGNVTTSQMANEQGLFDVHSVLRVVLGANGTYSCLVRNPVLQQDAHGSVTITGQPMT
The test is described as follows: SPR, IgG on 4Ig-B7-H3 without Fc fusion. How it is done:
as §1

Test [3] deals with T4, 2Ig-B7H3 without Fc fusion (human, UniProt Q5ZPR3-2 29-245, limits assumed).
T4 construct: also called 2IgB7H3 (R&D)
T4 sequence (looked up): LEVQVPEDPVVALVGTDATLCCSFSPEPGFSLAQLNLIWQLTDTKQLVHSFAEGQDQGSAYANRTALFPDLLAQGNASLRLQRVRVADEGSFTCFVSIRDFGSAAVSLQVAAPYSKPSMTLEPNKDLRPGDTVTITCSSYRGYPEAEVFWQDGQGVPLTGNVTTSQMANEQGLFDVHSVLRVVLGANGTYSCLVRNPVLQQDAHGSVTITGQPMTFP
The experiment in a line: SPR, IgG on 2Ig-B7-H3 without Fc fusion. How it is done:
as §1

Test [4] deals with T3, 4Ig-B7H3. The test is described as follows: SPR (Biacore T-100), 4Ig-B7H3 on CM5 chip, scFv injected. As for the experimental part:
(§2) In brief, B7H3 antigen (either 2Ig-B7H3, 4Ig-B7H3, 2Ig-B7H3-mFc, 4Ig-B7H3-mFc), was directly immobilized onto the CM5 sensor chip via […]. Reference surface was set up for nonspecific binding and refractive index changes. For analysis of the kinetics of interactions, varying concentrations of scFvs were injected at flow rate of 30 μl/min using running buffer containing 10 mM HEPES, 150 mM NaCl, 3 mM EDTA, and 0.05% Surfactant P-20 (pH 7.4). The association and dissociation phase data were fitted simultaneously to a 1:1 model by using BIAevaluation 3.2. All the experiments were done at 25° C.

In test [5] the target is T3, 4Ig-B7H3. The experiment in a line: SPR (Biacore), scFv; antigen not given. As for the experimental part: as §2

B1: hu8H9 H3L3 IgG1 (antibody, V domains shown)
VH: QVQLVQSGAEVVKPGASVKLSCKASGYTFTNYDINWVRQRPEQGLEWIGWIFPGDGSTQYNEKFKGKATLTTDTSTSTAYMELSSLRSEDTAVYFCARQTTATWFAYWGQGTLVTVSS
VL: EIVMTQSPATLSVSPGERVSLSCRASQSISDYLHWYQQKSHESPRLLIKYASQSISGIPARFSGSGSGSEFTLTINSVEPEDVGVYYCQNGHSFPLTFGQGTKLELKR
B1: the Kd was 0.0066 µM in test [1], 0.0075 µM with wild type 2Ig-B7H3-mFc, 0.033 µM with 4Ig-B7H3 [2] and 0.045 µM in test [3]. For the same molecule, the koff turned out to be 0.0452 s⁻¹ in test [1], 0.035 s⁻¹ in the test with wild type 2Ig-B7H3-mFc, 0.000677 s⁻¹ in the test with 4Ig-B7H3 [2] and 0.000607 s⁻¹ in test [3]. For the same molecule, the kon in test [1] worked out at 6.83e+06 M⁻¹ s⁻¹; with wild type 2Ig-B7H3-mFc, 4.67e+06 M⁻¹ s⁻¹; in the test with 4Ig-B7H3 [2] it was 20500 M⁻¹ s⁻¹; in test [3], 13500 M⁻¹ s⁻¹.

B2: hu8H9 H3L3 scFv (scFv)
scFv: QVQLVQSGAEVVKPGASVKLSCKASGYTFTNYDINWVRQRPEQGLEWIGWIFPGDGSTQYNEKFKGKATLTTDTSTSTAYMELSSLRSEDTAVYFCARQTTATWFAYWGQGTLVTVSSGGGGSGGGGSGGGGSEIVMTQSPATLSVSPGERVSLSCRASQSISDYLHWYQQKSHESPRLLIKYASQSISGIPARFSGSGSGSEFTLTINSVEPEDVGVYYCQNGHSFPLTFGQGTKLELKR
notes: also called parental hu8H9 H3L3; not shown: FLAG and His tags
In the test with 4Ig-B7H3 [4], B2 gave a dissociation constant Kd of 0.144 µM, a koff of 0.000919 s⁻¹ and a kon of 6380 M⁻¹ s⁻¹. In the test with 4Ig-B7H3 [5], this molecule yielded a Kd of 0.144 µM, a koff of 0.000919 s⁻¹ and an association rate constant (kon) of 6380 M⁻¹ s⁻¹.

B3: hu8H9 4.1 scFv (scFv)
scFv: QVQLVQSGAEVVKPGASVKVSCKASGYTFTNYDINWVRQRPEQGLEWIGWIFPGDGSTQYNEKFKGRVTMTTDTSTSTVYMELSSLRSEDTAVYFCARQTTATWFAYWGQGTLVTVSSGGGGSGGGGSGGGGSEIVMTQSPATLSVSPGERVTLSCRASQSISDYLHWYQQKSHQAPRLLIKYASQSISGIPARFSGSGSGSEFTLTISSLQPEDFGVYYCQNGHSFPLTFGQGTKLELKR
notes: not shown: FLAG and His tags
As to B3, in the test with 4Ig-B7H3 [5], the Kd was found to be 0.0457 µM, the koff amounted to 0.000557 s⁻¹ and the association rate constant (kon) was found to be 12200 M⁻¹ s⁻¹.

B4: hu8H9 clone S7.28 scFv (scFv)
scFv: B2 scFv with A24T, E42G, R87G, A97T, G129S, S153T, S163G, H167Y
notes: not shown: FLAG and His tags
With B4, in the test with 4Ig-B7H3 [4], the Kd was 0.277 µM, the koff worked out at 0.00132 s⁻¹ and the on-rate constant (kon) was determined as 4750 M⁻¹ s⁻¹.

B5: hu8H9 clone S7.2 scFv (scFv)
scFv: B2 scFv with V18C, A24T, E42G, G131V, S153T, S163G, H167Y
notes: not shown: FLAG and His tags
As to B5, in the test with 4Ig-B7H3 [4], the Kd was determined as 0.0056 µM, the koff amounted to 0.000143 s⁻¹ and the kon turned out to be 25400 M⁻¹ s⁻¹.

B6: hu8H9 3.1 scFv (scFv)
scFv: B2 scFv with A24T, E42G, G56D, A102G, S153T, H167Y
notes: not shown: FLAG and His tags
As for B6, in the test with 4Ig-B7H3 [5], the Kd was 0.00092 µM, the koff is 9.52e-05 s⁻¹ and the kon turned out to be 104000 M⁻¹ s⁻¹.

B7: hu8H9 5.1 scFv (scFv)
scFv: B3 scFv with A24T, E42G, G56D, A102G, H167Y
notes: not shown: FLAG and His tags
As for B7, in the test with 4Ig-B7H3 [5], the Kd was found to be 0.0017 µM, the koff was 9.84e-05 s⁻¹ and the kon stood at 58800 M⁻¹ s⁻¹.
